Reference: paper PMC10127185, “Low complexity domains of the nucleocapsid protein of SARS-CoV-2 form amyloid fibrils” (Nature Communications, 2023)

Experiments:
[1] = biological target: the molecule itself; test: crystal structure; GSQASS 100 mg/mL in water, hanging drop, 20 °C, 1.0 M Na,K tartrate, 0.2 M Li2SO4, Tris pH 7.0; needle crystals; 1.30 Å
[2] = biological target: the molecule itself; test: crystal structure; GQTVTK 68 mg/mL in water, hanging drop, 20 °C, 2.0 M (NH4)2SO4, 0.1 M sodium HEPES pH 7.5, 2% v/v PEG 400; 1.10 Å
[3] = biological target: the molecule itself; test: crystal structure; AALALL form 1: batch, peptide in water, acetonitrile and TFA about 45:45:10; needle crystals; 1.12 Å

B1: NCAP steric zipper segment 179GSQASS184 (peptide)
peptide: GSQASS
notes: Nucleocapsid protein (NCAP) of SARS-CoV-2, residues 179-184, within the central LCD; non-phosphorylated peptide
binding result [1]: binds

B2: NCAP steric zipper segment 243GQTVTK248 (peptide)
peptide: GQTVTK
notes: Nucleocapsid protein (NCAP) of SARS-CoV-2, residues 243-248, within the central LCD
binding result [2]: binds

B3: NCAP steric zipper segment 217AALALL222 (peptide)
peptide: AALALL
notes: Nucleocapsid protein (NCAP) of SARS-CoV-2, residues 217-222, within the central LCD; also called H-AALALL-OH
binding result [3]: binds
